Like-named read-outs stand apart in the source and are kept apart here.
Tests used:
[1] = system: embolic middle cerebral artery occlusion (eMCAO)
Experimental: Nerinetide (7.6 mg/kg) was administered as an intravenous bolus injection either 30 minutes before, or simultaneously with, the onset of a 60-minute infusion of rt-PA (5.4 mg/kg with a 10% bolus followed by 90% over 60 minutes). […] Experimental timeline. […] Hemispheric Infarct volume measurements 24 hours after eMCAo. […] Percentage of hemispheric brain swelling 24 hours after eMCAo and (D). Neurological scores 24 hours after eMCAo. Treatments were administered intravenously at the times indicated in (A). Bars represent mean±SD, with all individual data points plotted. Significant differences (in B) and (in C) are indicated with an asterisk when compared to the control group/nerinetide alone or with a number sign when compare to the thrombolytic agent (one-way ANOVA post hoc Tukey's correction for multiple comparisons test, *P<0.01 or #P <0.01, respectively) N=12-15 animals/group. Significant differences (in D) are indicated with an asterisk when compared to the control group/nerinetide alone or with a number sign when compare to the thrombolytic agent (Kruskal-Wallis analysis of variance on ranks with a post-hoc Dunn's correction for multiple comparisons test, *P<0.01 or #P<0.01, respectively).
To test this, male Sprague-Dawley rats (10-12 weeks old; 270-310 g; Charles River, Montreal, QC, Canada) were subjected to embolic middle cerebral artery occlusion (eMCAO), produced by the introduction of an autologous blood thrombus into the middle cerebral artery. Reperfusion was achieved by treatment with intravenous alteplase at a total dose of 5.4 mg/kg beginning at 90 minutes after ischemia onset. Alteplase was administered using the human injection protocol in which 10% of the total dose is given as a bolus, with the remainder 90% of the dose being given over a 60-minute infusion. The dose of alteplase was 6 times the human dose, in anticipation that the rat fibrinolytic system may be less sensitive to human recombinant tPA. […] Nerinetide was administered either 30 minutes prior to, or concurrently with, the start of the alteplase administration (FIG. 7A) at a dose of 7.6 mg/kg. […] Infarct volumes, hemispheric swelling and neurological scores were evaluated at 24 hours.

[2] = cited from earlier work

Molecule: plasmin
- cleavage of nerinetide by plasmin, LC/MS of fragments after incubation in PBS at 37 C (Tat-NR2B9c): Cleavage products consistent with these sites of cleavage were observed after incubating nerinetide (18 mg/mL) with plasmin (1 mg/mL) in phosphate-buffered saline at 37 °C and analyzing the samples by LC/MS

Molecule: alteplase [reference compound]
- reduction of infarction volume ([1]; alteplase alone 5.4 mg/kg given at 60 min after eMCAO): 26%
- reduction of infarction volume ([1]; alteplase alone 5.4 mg/kg given at 90 minutes after eMCAO): 18%
- mortality in pilot studies ([1]; rat, alteplase 10x human dose, hemorrhagic conversions of strokes): unacceptable mortality rates
- plasma half-life in human plasma ([2]; in vivo): about five

B1: Plasmin: serine protease activated by thrombolytics to dissolve fibrin blood clots; cleaves nerinetide (protein, UniProt P00747 20-580; P00747 581-810, looked up)
Plasmin heavy chain A: EPLDDYVNTQGASLFSVTKKQLGAGSIEECAAKCEEDEEFTCRAFQYHSKEQQCVIMAENRKSSIIIRMRDVVLFEKKVYLSECKTGNGKNYRGTMSKTKNGITCQKWSSTSPHRPRFSPATHPSEGLEENYCRNPDNDPQGPWCYTTDPEKRYDYCDILECEEECMHCSGENYDGKISKTMSGLECQAWDSQSPHAHGYIPSKFPNKNLKKNYCRNPDRELRPWCFTTDPNKRWELCDIPRCTTPPPSSGPTYQCLKGTGENYRGNVAVTVSGHTCQHWSAQTPHTHNRTPENFPCKNLDENYCRNPDGKRAPWCHTTNSQVRWEYCKIPSCDSSPVSTEQLAPTAPPELTPVVQDCYHGDGQSYRGTSSTTTTGKKCQSWSSMTPHRHQKTPENYPNAGLTMNYCRNPDADKGPWCFTTDPSVRWEYCNLKKCSGTEASVVAPPPVVLLPDVETPSEEDCMFGNGKGYRGKRATTVTGTPCQDWAAQEPHRHSIFTPETNPRAGLEKNYCRNPDGDVGGPWCYTTNPRKLYDYCDVPQCAAPSFDCGKPQVEPKKCPGR
Plasmin light chain B: VVGGCVAHPHSWPWQVSLRTRFGMHFCGGTLISPEWVLTAAHCLEKSPRPSSYKVILGAHQEVNLEPHVQEIEVSRLFLEPTRKDIALLKLSSPAVITDKVIPACLPSPNYVVADRTECFITGWGETQGTFGAGLLKEAQLPVIENKVCNRYEFLNGRVQSTELCAGHLAGGTDSCQGDSGGPLVCFEKDKYILQGVTSWGLGCARPNKPGVYVRVSRFVTWIEGVMRNN
modifications: Plasmin
notes: cleaves nerinetide
- half-life in human plasma ([2]; has been reported): 4 to 8 h

Reference: patent US20230285504A1, “INHIBITION OF REPERFUSION INJURY WITH A PSD-95 INHIBITOR” (NONO INC., priority 2020, published 2023)
